# Test results published in US20220025003A1 (University of Washington, published 2022).
# Numbering of substitutions follows the chain as printed. Names may count otherwise. Read-outs that look alike come from different tables or passages of the source.
# B1: D5 W177D, yeast surface display (designed binder)
# chain: SSDEEEARELIERAKEAAERAQEAAERTGDPRVRELARELKRLAQEAAEEVKRDPSSSDVNEALKLIVEAIEAAVDALEAAERTGDPEVRELARELVRLAVEAAEEVQRNPSSSDVNEALLTIVIAIEAAVNALEAAERTGDPEVRELARELVRLAVEAAEEVQRNPSSREVNIALDKIVLAIQEAVESLREAEESGDPEKREKARERVREAVERAEEVQRDPSGWLNH
# notes: also called point mutant of the D5 interface, W177D
# B2: GNCR1, yeast surface display (C-terminal fusion to Aga2) (designed binder)
# chain: KDNSSTIEGRYPYDVPDYALQASGGGGSGGGGSGGGGSASHMDIEKLCKKAEEEAKEAQEKADELRQRHPDSQAAEDAEDLANLAVAAVLTACLLAQEHPNADIAKLCIKAASEAAEAASKAAELAQRHPDSQAARDAIKLASQAARAVILAIMLAAENPNADIAKLCIKAASEAAEAASKAAELAQRHPDSQAARDAIKLASQAAEAVERAIWLAAENPNADIAKKCIKAASEAAEEASKAAEEAQRHPDSQKARDEIKEASQKAEEVKERCKSLEGGGSEQKLISEEDL
# B3: G3 M112E, yeast surface display (designed binder)
# chain: DIEKLCKKAEEEAKEAQEKADELRQRHPDSQAAEDAEDLANEAEAAVLAACSLAQEHPNADIAKLCIKAASEAAEAASKAAELAQRHPDSQAARDAIKLASQAARAVILAIELAAENPNADIAKLCIKAASEAAEAASKAAELAQRHPDSQAARDAIKLASQAAEAVERAIWLAAENPNADIAKKCIKAASEAAEEASKAAEEAQRHPDSQKARDEIKEASQKAEEVKERCKS
# notes: also called G3 interface point mutant M112E
# B4: G3 A175Q, yeast surface display (designed binder)
# chain: B3 chain with E112M, A175Q
# notes: See note of m25; also called G3 interface point mutant A175Q
# B5: ANR-ANR-BFP-CAAX (other)
# chain: MGELDELVYLLDGPGYDPIHSDGSGTGSGTGSGTGTTSGTGTGGSTGGELDELVYLLDGPGYDPIHSDGSGTGSGTGSGTGTTSGTGTGGSTGEQKLISEEDLGSGSSELIKENMHMKLYMEGTVDNHHFKCTSEGEGKPYEGTQTMRIKVVEGGPLPFAFDILATSFLYGSKTFINHTQGIPDFFKQSFPEGFTWERVTTYEDGGVLTATQDTSLQDGCLIYNVKIRGVNFTSNGPVMQKKTLGWEAFTETLYPADGGLEGRNDMALKLVGGSHLIANIKTTYRSKKPAKNLKMPGVYYVDYRLERIKEANNETYVEQHEVAVARYCDLPSKLGHKLNRKHKEKMSKDGKKKKKKSKTKCVIM
# B6: DNCR1, yeast surface display (C-terminal fusion to Aga2) (designed binder)
# chain: KDNSSTIEGRYPYDVPDYALQASGGGGSGGGGSGGGGSASHMSSDEEEARELIERAKEAAERAQEAAERTGDPRVRELARELKRLAQEAAEEVKRDPSSSDVNEALKLIVEAIEAAVDALEAAERTGDPEVRELARELVRLAVEAAEEVQRNPSSSDVNEALLSIVIAIEAAVHALEAAERTGDPEVRELARELVRLAVEAAEEVQRNPSSREVEHALMKIVLAIYEAEESLREAEESGDPEKREKARERVREAVERAEEVQRDPSGWLNHLEGGGSEQKLISEEDL
# B7: DNCR2, yeast surface display (C-terminal fusion to Aga2) (designed binder)
# chain: B6 chain with L163H, I167Y, V173I, H174F, E213N, K220R, E227L, S231N
# B8: D5, yeast surface display (C-terminal fusion to Aga2) (designed binder)
# chain: B6 chain with S164T, H174N, E215N, H216I, M219W, Y226Q, E229V
# B9: Tom20-BFP-ANR-ANR (other)
# chain: MVGRNSAIAAGVCGALFIGYCIYFDRKRRSDPNFMSELIKENMHMKLYMEGTVDNHHFKCTSEGEGKPYEGTQTMRIKVVEGGPLPFAFDILATSFLYGSKTFINHTQGIPDFFKQSFPEGFTWERVTTYEDGGVLTATQDTSLQDGCLIYNVKIRGVNFTSNGPVMQKKTLGWEAFTETLYPADGGLEGRNDMALKLVGGSHLIANIKTTYRSKKPAKNLKMPGVYYVDYRLERIKEANNETYVEQHEVAVARYCDLPSKLGHKLNSGSGEQKLISEEDLGSGTGSGTGSGTGTTSGTGTGGSTGGELDELVYLLDGPGYDPIHSDGSGTGSGTGSGTGTTSGTGTGGSTGGELDELVYLLDGPGYDPIHSDGSGATNFSLLKQAGDVEENPG
# Legend:
# [1] = target: T1, NS3a/danoprevir complex (biotinylated NS3a_3 with danoprevir) (hepatitis C virus genotype 1a); experiment: yeast surface display, flow cytometry
# T1 construct: See note of m30; also called danoprevir/NS3a complex
# [2] = target: T2, NS3a/grazoprevir complex (biotinylated NS3a_3 with grazoprevir) (hepatitis C virus genotype 1a); experiment: yeast surface display titration, apparent KD; NS3a_3, 10 drug:1 NS3a
# T2 construct: See note of m30; also called grazoprevir/NS3a complex
# [3] = target: T2, NS3a/grazoprevir complex (biotinylated …); experiment: yeast surface display
# [4] = target: T2, NS3a/grazoprevir complex (biotinylated …); experiment: yeast surface display, flow cytometry
# [5] = target: T3, NS3aH1-mCherry, no drug (DMSO) (hepatitis C virus); experiment: colocalization, confocal microscopy, NIH3T3 cells, no drug
# T3 construct: also called NS3a-mCherry
# [6] = target: T1, NS3a/danoprevir complex (biotinylated …); experiment: yeast surface display titration, apparent KD; NS3a_3, 10 drug:1 NS3a
# [7] = target: T4, NS3a/asunaprevir complex (biotinylated NS3a_3 with asunaprevir) (hepatitis C virus genotype 1a); experiment: as above
# T4 construct: See note of m30
# [8] = target: T2, NS3a/grazoprevir complex (biotinylated …); experiment: ratio of apparent KD against the danoprevir/NS3a complex of the same clone
# [9] = target: T4, NS3a/asunaprevir complex (biotinylated …); experiment: as above
# [10] = target: T1, NS3a/danoprevir complex (biotinylated …); experiment: yeast surface display
# [11] = target: T1, NS3a/danoprevir complex (biotinylated …)
# [12] = target: T2, NS3a/grazoprevir complex (biotinylated …); experiment: yeast surface display; against the NS3a/danoprevir complex
# [13] = target: T4, NS3a/asunaprevir complex (biotinylated …); experiment: as above
# [14] = target: T1, NS3a/danoprevir complex (biotinylated …); experiment: yeast surface display; relative binding, too weak for a full titration curve
# [15] = target: T2, NS3a/grazoprevir complex (biotinylated …); experiment: as above
# [16] = target: T4, NS3a/asunaprevir complex (biotinylated …); experiment: as above
binder,measurement,setting,value
B1,binding result,[1],"no binding (tested: 1 µM NS3a with avidity, 10 µM danoprevir)"
B2,Kd,[2],140 nM
same,Kd,[3],< 200 nM
B3,binding result,[4],no binding
B4,binding result,[4],no binding
B5,binding result,[5],binds
B6,Kd,[6],190 nM
same,Kd,[2],2900 nM
same,Kd,[7],6300 nM
same,Fold drug specificity,[8],15 fold
same,Fold drug specificity,[9],33 fold
same,Kd,[10],< 200 nM
B7,Kd,[11],0.036 nM
same,Kd,[2],2000 nM
same,Kd,[7],770 nM
same,Fold drug specificity,[8],56000 fold
same,Fold drug specificity,[9],21000 fold
same,fold specificity,[12],> 20000 fold
same,fold specificity,[13],> 20000 fold
B8,binding result,[14],binds
same,binding result,[15],binds
same,binding result,[16],binds
B9,binding result,[5],binds
